Series [1] in a line: flow cytometry, surface/total MFI ratio, HeLa. The following applies: glycan lost; control: WT hACE2.
For series [2] the following is noted: glycan lost.
Series [3] is described as follows: confocal immunofluorescence, HeLa cells. The following applies: glycan lost; control: WT hACE2.
The nature of series [4]: syncytia formation, GFP+ area, co-transfected HEK293T. As to conditions: glycan lost; control: WT hACE2.
Series [5] is described as follows: anti-ACE2 western blot, HEK293T lysates. As to conditions: glycan lost; control: WT hACE2. A general note: A western blot detects proteins with antibodies after separation by electrophoresis.
Series [6] in a line: qRT-PCR of viral N RNA, transfected HEK293T. As to conditions: glycan lost; control: WT hACE2. (In qPCR the cycle at which signal appears reflects the starting amount.)
Series [7] can be described thus: VSVpp infection, BFP+ cells, HEK293T without TMPRSS2. As to conditions: glycan lost; control: WT hACE2.

Read-outs that look alike come from different tables or passages of the source.

As to “hACE2 (angiotensin-converting enzyme 2): N53A”, the localisation_or_trafficking entry in series [1] and in series [3] was “no change” each time. Besides, the “other: cell-cell fusion” value in series [2] is on record as “decreases”; in series [4] it was “no change”. In addition, in series [2], the “other: viral entry receptor function, fold_change” value is “no change”. Besides, the expression_or_secretion entry in series [5] is listed as “no change”.
“hACE2 (angiotensin-converting enzyme 2): N90A”: the localisation_or_trafficking result in series [1] is “no change”. Further, in series [2], the “other: susceptibility to genuine virus infection” value is on record as “no change”; the “other: susceptibility to genuine virus infection, fold_change” value was “increases”; the “other: viral entry receptor function, fold_change” value is on record as “no change”. Also, in series [3], the localisation_or_trafficking entry was “no change”. In series [5], the expression_or_secretion result is “no change”.
For “hACE2 (angiotensin-converting enzyme 2): N103A”, the localisation_or_trafficking result in series [1] and in series [3] was “no change” throughout. Moreover, the “other: viral entry receptor function, fold_change” value in series [2] is recorded as “no change”. Moreover, the expression_or_secretion result in series [5] is “no change”.
As to “hACE2 (angiotensin-converting enzyme 2): N322A”, the “other: susceptibility to genuine virus infection” value in series [6] is given as “decreases”; in series [2], “increases”. For the same substance, the localisation_or_trafficking result in series [1] and in series [3] was “no change” in each case. The “other: Camostat sensitivity of S-mediated entry” value in series [2] is recorded as “decreases”. Further, the “other: viral entry receptor function, fold_change” value in series [2] is “increases”. In addition, the “other: viral entry receptor function” value in series [2] (control: WT hACE2) was “no change”; in series [7] it was “increases”. The expression_or_secretion entry in series [5] is “no change”.
Turning to “hACE2 (angiotensin-converting enzyme 2): N432A”, the localisation_or_trafficking result in series [1] and in series [3] was “no change” throughout. The “other: viral entry receptor function, fold_change” value in series [2] is listed as “no change”. Further, the expression_or_secretion result in series [5] is reported as “no change”.
“hACE2 (angiotensin-converting enzyme 2): N546A”: the localisation_or_trafficking entry in series [1] and in series [3] was “no change” in each case. Besides, the “other: viral entry receptor function, fold_change” value in series [2] is listed as “no change”. The expression_or_secretion entry in series [5] was “no change”.
As to “hACE2 (angiotensin-converting enzyme 2): N690A”, in series [6], the “other: susceptibility to genuine virus infection” value was “no change” and the “other: susceptibility to genuine virus infection, fold_change” value was “no change”. Also, the localisation_or_trafficking entry in series [1] is reported as “no change”. Besides, the “other: viral entry receptor function, fold_change” value in series [2] is on record as “increases”. The localisation_or_trafficking result in series [3] is reported as “no change”. The “other: viral entry receptor function” value in series [7] is “increases”. In addition, the expression_or_secretion result in series [5] is “no change”.
On to “hACE2 (angiotensin-converting enzyme 2): T92I”, for which the localisation_or_trafficking result in series [1] and in series [3] was “no change” each time. The expression_or_secretion result in series [5] is “no change”.

Source of the values: paper PMC12090729.
